± gives the uncertainty stated by the source.
Test: amyloid nucleation score (Sup35N fusion, yeast selection) (log enrichment); library NNK1; higher = more nucleation; inactive = no reads after selection
How it was run: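 Output and input plasmid inserts were sequenced by Illumina after psi-negative yeast carrying Sup35N fused to peptides of 20 random codons had been induced 24 hours with 100 μM copper sulfate and grown 7 days at 30°C on medium lacking adenine and uracil. The nucleation score is the DiMSum log enrichment of output over input reads, centred on the mode score of non-aggregating sequences. Sequences with under 100 input reads were excluded.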

Substance	amyloid nucleation score
AFDQGGIYTVPSGKNFPCTL	-0.186 ± 0.4
HNKCSFLYMSQYARHRMYSS	0.218 ± 0.5
RVYILFRHLVYSGGKFSVFI	inactive
LLAVAGPLLWLYRYMISFIS	0.071 ± 0.97
YLYAACVVWLMLLPNME	-0.671 ± 1.2
YSPFYYVDI	1.61 ± 0.42
ISSKLLFSESSPSMSIQTHW	0.765 ± 0.64
LAGQVVRRTKTLWHAPAHPY	0.374 ± 0.36
VTMDCLMLPYRKGNPN	0.996 ± 0.64
SRVVSYSL	-0.5 ± 0.41
RVLSVIVNILIARFT	-0.028 ± 0.25
VATPISLGFPPWTSNVHAHT	inactive
RASFIELVTEKRHPSHTPGK	-0.473 ± 0.39
GDIFSVQQPSNHQLETLKYS	inactive
NNSLISTGVRMNHVVLR	-0.091 ± 0.9
CMSSAALSRLHM	-0.605 ± 1.1
DEGRDLILISLAHRTSRIDP	1.29 ± 0.26
WSFVYMENVIARYEVSVG	0.296 ± 0.25
FRPSRHNAQPMFHSKPSRAF	-0.636 ± 1.1
FIRCVNSV	-0.745 ± 2.4
CAIFFTASLCVCRLSAACEQ	1.75 ± 0.43
RTELPHFFRVFAHRFACSGD	1.31 ± 0.93
CQSGMSDDEGGQGRFVKCMG	0.114 ± 0.51
LVCSLTDNYDEE	0.169 ± 0.97
FPRLGCARTFSDHSMLACTI	0.098 ± 0.59
IRLIKIPVKFKFVSTMCSGC	-0.1 ± 0.93

Substance	amyloid nucleation score
GKVIQHG	-0.579 ± 1.7
KMTCCSGSINDGYLYCVYNV	6.56 ± 0.071
AIRWYGMDDMPTRGYQWSPA	-0.128 ± 0.59
SAAPRFCSYSSFFALSNLSI	0.615 ± 0.3
PCALGECRLVNSVISRGFGR	0.38 ± 1.2
LRARMCYRAPLRFR	-0.257 ± 1.7
NIEVYDFYNINSMYNV	4.54 ± 0.079
VTRYVPECGWKDLDLASWYL	1.34 ± 0.58
HLWHSGPFVRMCCATFIFLA	0.49 ± 0.75
VLKDFYNDDKRFQRRL	0.421 ± 0.3
GACECDGYVTWCLRGIFGAK	-1.41 ± 0.94
IRVGGIWRGCCGVDLCYLTI	-0.627 ± 0.61
TKLKNWGLNLGMASGNQSDR	-0.725 ± 0.45
SSNSPCMPVRRTADNPSPYA	0.239 ± 0.51
PVKVWARTVQSVAWLFSCG	-0.016 ± 1.4
AYSLLMDYGFNHLFIRRFSR	-0.067 ± 0.42
LRVPRCMIKRLHYGICPSSG	0.094 ± 0.91
LLFCQNDSGVVRLMLTVFLR	-0.791 ± 1.2
DDSHVSCDYTLYGWSFGYMC	2.37 ± 0.1
HVDKFLG	-0.025 ± 0.6
LEKQMNASQFAPPRLLLRKL	0.498 ± 0.87
SGAYLKASYTSPSVRVFLVL	2.75 ± 0.25
LFLGMSNGLFLRMISRGCKW	-0.243 ± 0.33
RYDAWCYGWGVMMLHKFIG	-0.012 ± 0.64
LVFLTYSSASARIPLRI	0.267 ± 0.29
MFQVVGRYNGVFLVTEPWTC	inactive

Substance	amyloid nucleation score
DSWEYFLP	-0.375 ± 0.53
RCMSDFRPVWVYVS	-0.222 ± 0.86
NQDVTPVMRVVLDSSPTLSS	2 ± 0.6
ERRLTTFCCMWANLGVADGT	0.436 ± 1
VIIRRWHIVFCSRFMFPCNF	0.297 ± 0.64
LFSWFWNEI	0.658 ± 0.72
MMGGKDCQFYCSIPLFRVMM	2.2 ± 0.16
NRLVMLLLTLSNGSCEKVRD	2.95 ± 0.094
SGDWTYFIIMRWDLPFIICR	0.265 ± 0.22
VCVGFIGDVIRLERSANSVL	-0.049 ± 0.3
LIHSRKVLSSMTYIEGPLTS	0.166 ± 0.34
LRSEEVFTHMRAGVAKSFWD	0.461 ± 0.72
KCDARVVIFYLVRAGGVNGI	1.41 ± 0.35
SGGELVVLIYMNMGASGWAP	-0.756 ± 0.56
DAMRGLPFYQYMHHMGNGYW	-0.083 ± 1.4
IICISFWSVKLVDHPMVSNG	0.726 ± 0.75
NYHMIVRLASLKKQW	0.109 ± 0.46
HVQIILYLSFKTRRLVDLCL	inactive
YMNLVLTDLAWSIWGG	3.62 ± 0.1
SSGFKSAPFSFLRLFLHISR	-1.47 ± 2.4
HFYSRYRTPQTRS	-0.549 ± 0.64
RHFEDYMELSSLSLGMGEG	-0.394 ± 0.63
NSIYHYIVNTFYLNFMGWIE	1.25 ± 0.79
MDPIPREAQVKVLSSHTTIG	0.606 ± 0.53
VNNIVRSICGIKGEVRFLCG	0.094 ± 1.2
QVHIERDVERPYMFLGTAWG	-0.285 ± 0.34

Substance	amyloid nucleation score
MQSMQL	inactive
CHYVKPVFTICQVPTFIESI	1.43 ± 0.51
LNYSWDWLVVCIVANVRTYD	2.22 ± 0.12
FHQDFDSWF	0.362 ± 0.51
ECAIKG	1.38 ± 0.69
VCSGTFGYHRRYEWDWVLKG	0.215 ± 1.2
YMASDEVNI	-0.232 ± 0.26
VYFIRIHLLFRHRTGGICNT	1.06 ± 0.72
WEYEAGNFDSVMMVLLLSCY	1.25 ± 0.61
QYWVCNKPTLVDYRDTCDRT	0.023 ± 0.89
LHRSRFHDNTTSNGLLKGTV	-0.574 ± 0.6
FSVRHLSVSVLRMGTHLLDA	-0.746 ± 0.61
CFGCF	2.23 ± 0.17
NGHLRSINTSSARCMPAVFT	-0.112 ± 0.53
VSNTWYLTVNLFLYIIPCN	6.755 ± 0.058
EALNPVVLPSTN	1.55 ± 0.14
SYTGHPMNDRWHIG	3.4 ± 0.074
FRRFIFFVGYGHFIFWASWL	-0.156 ± 0.68
LSFLLEASNHDWDGSLG	inactive
ANMYY	-0.279 ± 1.1
FHGDLA	-0.57 ± 0.26
GFNMLC	0.224 ± 0.5
FEECLM	-0.059 ± 0.44
PFVDFVVSRNYLRL	0.572 ± 0.61
GIVCYKCSVDFLLSWLSVVF	-0.092 ± 0.31
ASGVWRQ	-0.47 ± 0.65

Substance	amyloid nucleation score
LCLGLHSNLSLSMLRLLVLE	-0.482 ± 1.4
LLSATFLLMSTCY	0.34 ± 0.29
SGLGTNKRSTPWYHSRFEGQ	0.036 ± 0.47
CAVLLGSIVHMLFAYE	0.132 ± 0.61
DWLHQSRL	0.239 ± 0.42
TEIIFYLVYGWLTFRILGYN	-0.705 ± 0.43
TMLLDAYHEFKWANTNLFWL	-0.263 ± 0.93
LKCLFLIAIFYIINCCSNLS	inactive
LFMLSSVGASMYFMG	1.69 ± 0.19
ILKELSKPGVQPVVS	0.575 ± 0.8
CWCMFCTASL	7.637 ± 0.064
VEMGIIFR	-0.339 ± 0.24
LHTRGLEMFRIGPSCCKWPL	1.49 ± 0.68
QRVSIRFSVPRGL	0.312 ± 0.31
NVISRSLVMYMYKEERPASA	0.031 ± 0.27
SRSLPLHCMRHGVRRTGRMA	0.668 ± 0.57
KISITSTIVFS	1.32 ± 0.33
TEGLKVTLIHTTPLFCP	0.239 ± 0.42
RIDTFTWSCKCLPPSSIWLL	0.009 ± 0.76
SHMMHSMAEVSFARYWDKQS	-2.46 ± 1.9
TSCPRYECNENTSVYGSLDT	inactive
FRNDGYLNSYMSRRVIIPSD	-0.194 ± 0.23

— the supplement of paper PMC12042874
